# According to the supplement of paper PMC9732359:
# ± gives the uncertainty stated by the source.
# Test: protein stability index of a GFP-peptide fusion (yeast GPS) (PSI 1-4); higher = more stable; sorted into four equal gates, so the index is relative within each strain
# Method in brief: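 Tiled 17-residue yeast protein peptides were fused downstream of GFP in a plasmid that also expresses Cherry, and the pooled library was carried in yeast. Mid-log cultures in leucine-free medium were sorted into four equal gates by GFP/Cherry fluorescence ratio, and plasmids from each gate were PCR-amplified and Illumina-sequenced, with reads assigned to strains by barcodes. The protein stability index for each peptide was each gate's read frequency times its gate number, summed.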
Sequence,protein stability index (doa10∆),protein stability index (pdr5∆),protein stability index (san1∆),protein stability index (ubr1∆)
NYLNDMHDSNLQNNSDS [SKP1],2.48 ± 0.12,2.59 ± 0.063,2.3 ± 0.08,2.7 ± 0.054
ERYFDCCTKFFTMMTSE [PCI8],2.38 ± 0.059,2.44 ± 0.071,2.35 ± 0.07,2.29 ± 0.045
GIFGMDFYVVMNRPGAR [RPL11A],1.8 ± 0.057,1.71 ± 0.064,2.49 ± 0.058,2.24 ± 0.047
MARYGATSTNPAKSASA [RPL17A],2.59 ± 0.056,2.91 ± 0.064,2.31 ± 0.09,2.9 ± 0.048
TLLYEQIIQRDKINKYS [SNF5],3.1 ± 0.08,3.35 ± 0.089,3.19 ± 0.059,2.27 ± 0.072
RIRKLTGQNFLTSNISS [REC8],1.6 ± 0.056,1.79 ± 0.05,1.57 ± 0.093,1.53 ± 0.053
TIKVAGTPLLEVRGQVP [SNU114],2.67 ± 0.08,2.69 ± 0.067,2.94 ± 0.063,2.98 ± 0.069
NEKRYATASAIAATAVA [RPL4A],2.29 ± 0.087,1.53 ± 0.056,1.74 ± 0.14,1.5 ± 0.066
TLPQPRLNKLNSNGIAM [SMD1],2.3 ± 0.11,2.27 ± 0.069,1.72 ± 0.094,2.15 ± 0.053
AKCNSLLQLKYFSNKTS [POP5],1.84 ± 0.076,2.09 ± 0.055,1.8 ± 0.1,2.2 ± 0.08
QKYNQIQKQIETIQADL [SMC2],2.68 ± 0.047,2.57 ± 0.042,2.6 ± 0.047,2.45 ± 0.031
PQFNSPYDSNNSNTNLN [SWI1],2.97 ± 0.054,3.03 ± 0.047,2.76 ± 0.052,2.9 ± 0.043
LRSTEYSKSFEQFKMVS [POP1],2.21 ± 0.089,2.63 ± 0.12,2.49 ± 0.094,2.52 ± 0.11
NMPNCDYLTLNKVVVNL [RPN2],2.99 ± 0.054,2.88 ± 0.061,2.58 ± 0.068,3.02 ± 0.051
PTLPTNHNKTKLLKSLK [PRP8],2.33 ± 0.07,1.6 ± 0.056,1.82 ± 0.076,2.41 ± 0.057
GEDSTKPLGPCDVFWVQ [POP1],3.12 ± 0.094,2.97 ± 0.082,3.17 ± 0.072,2.8 ± 0.057
TMVIQDEDWSVRIDKAL [ECM29],2.84 ± 0.19,3.21 ± 0.18,–,–
TPSSNSNSSELEPDYQA [MED1],2.74 ± 0.13,2.96 ± 0.16,3.35 ± 0.055,3.43 ± 0.1
GLIMLNLQPASVINNYL [NUT1],1.71 ± 0.063,1.5 ± 0.098,1.15 ± 0.27,2 ± 0.071
LCKSATTKMWPTNCPLR [BRR2],2.82 ± 0.13,2.68 ± 0.12,2.58 ± 0.081,2.75 ± 0.094
PYAVLSQFYELRDREDW [YJR042W/NUP85],2.16 ± 0.16,–,2.31 ± 0.21,2.71 ± 0.18

Sequence,protein stability index (doa10∆),protein stability index (pdr5∆),protein stability index (san1∆),protein stability index (ubr1∆)
VKRRRDMLEHINLAMNE [SRB4],1.3 ± 0.096,1.33 ± 0.12,1.14 ± 0.19,1.2 ± 0.078
DLTFKLADILKANISLE [RPO21],2.49 ± 0.068,2.68 ± 0.087,2.46 ± 0.067,2.32 ± 0.047
LVRELYQWRDLIARRDD [RRP6],2.96 ± 0.056,2.77 ± 0.062,2.65 ± 0.055,2.25 ± 0.043
MFILSKIADLVRIPPDQ [RPC25],–,2.69 ± 0.22,–,–
PNTRDAESEAITVTAKQ [SWI3],3.08 ± 0.075,3.23 ± 0.056,3.17 ± 0.063,3.15 ± 0.05
NELLEMVGLASGNDSMA [BRR2],2.59 ± 0.094,2.1 ± 0.072,3.11 ± 0.077,2.32 ± 0.057
LLRIQMLLCVSYFLQER [PCI8],1.29 ± 0.046,1.45 ± 0.044,1.35 ± 0.074,1.22 ± 0.052
EKIAAGYMQKPVYATIG [PRP28],2.87 ± 0.19,2.67 ± 0.076,2.67 ± 0.15,2.67 ± 0.094
KPVKVALIFIFFAYFIG [YJL039C/NUP192],1.66 ± 0.042,1.4 ± 0.037,1.38 ± 0.064,1.4 ± 0.027
FDTSIKLDIISDPESER [RPN14],2.7 ± 0.061,2.94 ± 0.082,2.59 ± 0.071,2.9 ± 0.068
SKGSFINIAQMSACVGQ [RPO21],1.44 ± 0.059,1.61 ± 0.053,1.3 ± 0.082,1.67 ± 0.051
SGKRKPTKAAQRARDQD [GAL11],–,3.65 ± 0.16,3.25 ± 0.28,3.58 ± 0.15
ATIIGIISTAIADSTHV [ECM29],1.74 ± 0.073,1.65 ± 0.061,1.95 ± 0.066,1.51 ± 0.04
TRVHQLMLEDAVTEREV [MCD1],3.35 ± 0.22,2.92 ± 0.16,2.36 ± 0.23,2.89 ± 0.12
SPMLSISNLTQEQVQDY [FAS1],2.97 ± 0.058,2.97 ± 0.047,2.98 ± 0.05,3.09 ± 0.044
LHVEQLSGGQKTVCAIA [SMC3],1.58 ± 0.15,2.08 ± 0.24,2.09 ± 0.15,1.82 ± 0.067
KQFFQMTPLLVNCLELL [PCI8],1.4 ± 0.034,1.32 ± 0.034,1.26 ± 0.067,1.23 ± 0.025
NYILNFKQSNSETFLQF [CDC53],2.57 ± 0.13,1.43 ± 0.1,1.77 ± 0.17,2.12 ± 0.11
TIEVLDEVITEGQADID [POP7],2.94 ± 0.064,3.1 ± 0.061,3.06 ± 0.072,3.07 ± 0.049
QSALSQIIRLFYSKNRL [ISW2],2.62 ± 0.066,2.49 ± 0.059,1.87 ± 0.095,2.61 ± 0.053
